Source: article PMC8991485, “Protein purification strategies must consider downstream applications and individual biological characteristics” (Microbial Cell Factories, 2022)

Legend:
[1] = target: wild-type recombinant soluble LLT1; assay: SEC; gel filtration of recombinant soluble LLT1 made in HEK293T; peak at 16 ml taken as the non-covalent dimer
[2] = target: cysteine-less mutant of Galectin-1 (UniProt P09382); assay: AUC; analytical ultracentrifugation (sedimentation) of Galectin-1 purified in reducing or non-reducing conditions
[3] = target: the molecule itself; assay: SEC; gel filtration of recombinant soluble LLT1 made in HEK293T; peak at 16 ml taken as the non-covalent dimer

Q: With “wild-type recombinant soluble LLT1 (domain or fragment)” as the molecule, how does the stoichiometry N [1] read?
A: 2

Q: “cysteine-less mutant of Galectin-1 (from UniProt P09382 1-135)” was tested. Which stoichiometry N [2] did it give?
A: 2

B1: soluble LLT1 H176C mutant (domain or fragment)
chain: QAACPESWIGFQRKCFYFSDDTKNWTSSQRFCDSQDADLAQVESFQELNFLLRYKGPSDHWIGLSREQGQPWKWINGTEWTRQFPILGAGECAYLNDKGASSARCYTERKWICSKSDIHV
notes: soluble fragment of the lymphocyte receptor LLT1 with H176C, which restores the disulfide Cys163-Cys176; also called second mutant; source: HEK293T cell line, purified (gel filtration)
Q: How did the “stoichiometry N” value [3] turn out when B1 was run?
A: 2
